Assay [1] deals with Human CD16a (FcγRIIIa residues 17-208 with C-terminal HPC4 tag and valine at position 158) (human) (UniProt P08637). The experiment in a line: Biacore SPR, HPC4-tagged FcγRIIIa-V158 captured by anti-HPC4, pH 7.4. Background: In SPR one partner is held on a chip, and binding of the other changes the refractive index at the surface.
Assay [2] concerns the target biotinylated cynomolgus FcRn (cynomolgus) (UniProt Q8SPV9). The experiment in a line: Biacore, biotin-captured cFcRn, pH 8.0.
In assay [3] the target is biotinylated human FcRn (human) (UniProt P55899). Nature of the assay: Biacore, biotin-captured hFcRn, pH 7.4.
Assay [4] addresses biotinylated cynomolgus FcRn (cynomolgus) (UniProt Q8SPV9). The experiment in a line: Biacore, biotin-captured cFcRn, pH 7.4.
The target is the same in assay [5]. The experiment in a line: Biacore, biotin-captured cFcRn, pH 7.4, 1000 nM antibody.
Assay [6] shares this target. The experiment in a line: Biacore, biotin-captured cFcRn, pH 9.0, 1000 nM antibody.
Assay [7] concerns the target biotinylated human FcRn (human) (UniProt P55899). The experiment in a line: Biacore, biotin-captured hFcRn, pH 6.0.
In assay [8] the target is biotinylated cynomolgus FcRn (cynomolgus) (UniProt Q8SPV9). The experiment in a line: Biacore, biotin-captured cFcRn, pH 8.0, 1000 nM antibody.
Assay [9] shares this target. The experiment in a line: Biacore, biotin-captured cFcRn, pH 6.0.
For assay [10], the target named is biotinylated human FcRn (human) (UniProt P55899). Nature of the assay: Biacore, biotin-captured hFcRn, pH 9.0, 1000 nM antibody.
Assay [11] shares this target. The experiment in a line: Biacore, biotin-captured hFcRn, pH 8.0.
Assay [12] shares this target. Nature of the assay: Biacore, biotin-captured hFcRn, pH 7.4, 1000 nM antibody.
Assay [13] addresses biotinylated human FcRn (p51 subunit residues 24-297 with C-terminal Avi-tag; beta2-microglobulin residues 21-119) (human) (UniProt P55899). The experiment in a line: Biacore SPR, pH 6.0.
Assay [14] has the same target. Nature of the assay: Biacore SPR, pH 7.4, steady state.
The target of assay [15] is biotinylated human FcRn (human) (UniProt P55899). Nature of the assay: Biacore, biotin-captured hFcRn, pH 8.0, 1000 nM antibody.
The target is the same in assay [16]. Nature of the assay: Biacore, pH 6.0, apparent KD.
For assay [17], the target named is rat FcRn (rat) (UniProt P13599). Nature of the assay: Biacore, pH 6.0, apparent KD.
The target of assay [18] is FcRn immobilised on the FcRn affinity column (biotinylated cynoFcRn in one experiment, biotinylated hFcRn in another). The experiment in a line: FcRn affinity chromatography, linear pH gradient; species of the immobilised FcRn not given.
In assay [19] the target is biotinylated human FcRn (human) (UniProt P55899). The experiment in a line: Biacore, pH 6.0.
Assay [20] has as its target rat FcRn (rat) (UniProt P13599). Nature of the assay: Biacore, pH 6.0.
Assay [21] concerns the target Human CD16a (FcγRIIIa V158) with C-terminal HPC4 tag (human) (UniProt P08637). Nature of the assay: Biacore, FcγRIIIa V158 captured, steady-state fit, apparent KD.
Assay [22] addresses biotinylated human FcRn (p51 subunit residues 24-297 with C-terminal Avi-tag; beta2-microglobulin residues 21-119) (human) (UniProt P55899). Nature of the assay: Biacore; inverse ratio (RU at pH 7.4 over affinity at pH 6.0).
Assay [23] has the same target. The experiment in a line: Biacore; affinity at pH 6.0 (M^-1) over steady state RU at pH 7.4.
In assay [24] the target is biotinylated human FcRn (human) (UniProt P55899). Nature of the assay: Biacore, pH 7.4, steady state response.
Assay [25] deals with rat FcRn (rat) (UniProt P13599). Nature of the assay: Biacore, pH 7.4, steady state response.
In assay [26] the target is biotinylated human FcRn (human) (UniProt P55899). Nature of the assay: Biacore SPR, pH 6.0.
The target of assay [27] is rat FcRn (rat) (UniProt P13599). The experiment in a line: Biacore SPR, pH 6.0.
Assay [28] addresses biotinylated human FcRn (human) (UniProt P55899). Nature of the assay: Biacore SPR, pH 7.4.
Assay [29] deals with rat FcRn (rat) (UniProt P13599). The experiment in a line: Biacore SPR, pH 7.4.

Chain of rat FcRn (rat) (P13599 23-298 limits assumed, chain 1 of 2): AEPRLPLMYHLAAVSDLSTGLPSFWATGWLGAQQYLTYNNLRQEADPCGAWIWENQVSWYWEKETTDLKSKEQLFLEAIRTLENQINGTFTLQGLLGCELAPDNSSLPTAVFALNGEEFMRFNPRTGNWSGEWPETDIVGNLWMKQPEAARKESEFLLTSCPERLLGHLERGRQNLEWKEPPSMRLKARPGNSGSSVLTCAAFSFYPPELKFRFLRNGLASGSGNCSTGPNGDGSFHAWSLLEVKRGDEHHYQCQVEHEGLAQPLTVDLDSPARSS
Chain of rat FcRn (rat) (P07151 21-119 limits assumed, chain 2 of 2, further chain): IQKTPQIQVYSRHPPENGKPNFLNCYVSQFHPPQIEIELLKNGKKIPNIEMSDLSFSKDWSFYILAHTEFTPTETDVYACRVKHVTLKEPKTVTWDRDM
Chain of Human CD16a (FcγRIIIa residues 17-208 with C-terminal HPC4 tag and valine at position 158) (human) (P08637 17-208 F176V): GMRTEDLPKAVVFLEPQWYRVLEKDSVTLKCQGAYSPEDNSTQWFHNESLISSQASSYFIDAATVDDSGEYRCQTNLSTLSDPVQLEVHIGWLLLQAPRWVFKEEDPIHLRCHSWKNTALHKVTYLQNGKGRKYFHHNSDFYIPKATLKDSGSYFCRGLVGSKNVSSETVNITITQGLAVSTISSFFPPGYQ
Chain of Human CD16a (FcγRIIIa V158) with C-terminal HPC4 tag (human) (P08637 17-208 F176V): as above
Chain of biotinylated human FcRn (p51 subunit residues 24-297 with C-terminal Avi-tag; beta2-microglobulin residues 21-119) (human) (P55899 24-297 limits assumed, chain 1 of 2): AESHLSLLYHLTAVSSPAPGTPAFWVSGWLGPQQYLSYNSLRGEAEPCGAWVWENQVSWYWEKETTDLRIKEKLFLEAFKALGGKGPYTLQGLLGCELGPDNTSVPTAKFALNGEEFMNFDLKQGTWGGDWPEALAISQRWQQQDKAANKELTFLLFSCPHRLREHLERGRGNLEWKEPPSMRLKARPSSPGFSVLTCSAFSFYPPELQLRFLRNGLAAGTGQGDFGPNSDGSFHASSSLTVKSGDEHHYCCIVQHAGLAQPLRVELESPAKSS
Chain of biotinylated human FcRn (p51 subunit residues 24-297 with C-terminal Avi-tag; beta2-microglobulin residues 21-119) (human) (P61769 21-119 limits assumed, chain 2 of 2, further chain): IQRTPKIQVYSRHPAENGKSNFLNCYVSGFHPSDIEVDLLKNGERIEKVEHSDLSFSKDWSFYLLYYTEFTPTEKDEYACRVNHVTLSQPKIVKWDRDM
Chain of biotinylated human FcRn (human) (P55899 24-297 limits assumed, chain 1 of 2): as the sequence (P55899 24-297 limits assumed, chain 1 of 2) above
Chain of biotinylated human FcRn (human) (P61769 21-119 limits assumed, chain 2 of 2, further chain): as the sequence (P61769 21-119 limits assumed, chain 2 of 2, further chain) above

In the case of “YTEKF benchmark (M252Y/S254T/T256E/H433K/N434F) hIgG1 (antibody)”, the FcγRIIIa Binding Steady State RU in assay [1] was determined as 207 RU.
As to “YTEKF hIgG1 benchmark (M252Y/S254T/T256E/H433K/N434F) (antibody)”, the Kd was 3200 nM in assay [2]; 74 nM in assay [3]; 76 nM in assay [4]; 15 nM in assay [7]; 8.3 nM in assay [9]; 2400 nM in [11]. Further, the Steady State RU in assay [5] amounted to 152 RU; in assay [6], 3.8 RU; in assay [8], 268 RU; in assay [10], 2.7 RU; in assay [12], 132 RU.
Regarding “mAb1 YDQF (M252Y/T256D/T307Q/N434F) (antibody)”, the Kd amounted to 2900 nM in [2]; 82 nM in [3]; 95 nM in assay [4]; 4.3 nM in assay [9]; 2700 nM in assay [11]. Further, the Ka in [13] came to 1.11e+08 M⁻¹. Besides, the Steady State RU in assay [5] was 176 RU; in [6], 2.2 RU; in assay [8], 245 RU; in assay [15], 196 RU; in assay [10] it was 1.4 RU; in assay [12] it was 140 RU. In assay [14], the Steady State Binding, pH 7.4 (RU) was found to be 68.6 RU.
“mAb1 YDQY (M252Y/T256D/T307Q/N434Y) (antibody)”: the Kd in assay [2] was 490 nM; in [3], 50 nM; in [4], 56 nM; in assay [7], 2.7 nM; in assay [9] it was 1.9 nM; in [11], 670 nM. Also, the Ka in assay [13] was 2.35e+08 M⁻¹. For the same substance, the Steady State RU was 196 RU in assay [5]; 6.3 RU in [6]; 325 RU in assay [8]; 264 RU in [15]; 4.6 RU in [10]; 157 RU in assay [12]. In assay [14], this substance had a Steady State Binding, pH 7.4 (RU) of 80.2 RU.
For the substance “mAb1 YDTY (M252Y/T256D/N434Y) (antibody)”, the Kd in assay [2] was 2500 nM; in [3], 76 nM; in assay [4], 64 nM; in [7] it was 15 nM; in assay [9] it was 13 nM; in assay [11] it was 8700 nM. In assay [13], the Ka was found to be 9.01e+07 M⁻¹. Besides, the Steady State RU came to 134 RU in assay [5]; 1.9 RU in [6]; 183 RU in assay [8]; 141 RU in [15]; 0.6 RU in [10]; 120 RU in [12]. This substance also gave a Steady State Binding, pH 7.4 (RU) in assay [14] of 65.4 RU.
Consider “mAb1 YDWF (M252Y/T256D/T307W/N434F) (antibody)”, for which the Kd worked out at 680 nM in assay [2]; 194 nM in assay [3]; 115 nM in assay [4]; 8.6 nM in assay [9]; 1300 nM in assay [11]. The Ka in assay [13] amounted to 1.66e+08 M⁻¹. The Steady State RU in [5] turned out to be 173 RU; in assay [6], 4.6 RU; in [8], 313 RU; in [15] it was 235 RU; in assay [12] it was 124 RU. In addition, the Steady State Binding, pH 7.4 (RU) in assay [14] was determined as 71.8 RU. Further, the FcγRIIIa Binding Steady State RU in assay [1] is 128 RU.
In assay [7], “mAb1 YEQF (M252Y/T256E/T307Q/N434F) (antibody)” registered a Kd of 15 nM, a koff of 0.0121 s⁻¹ and a kon of 790000 M⁻¹ s⁻¹. The substance also returned a FcγRIIIa Binding Steady State RU in assay [1] of 226 RU.
Take “mAb1 YEQN (M252Y/T256E/T307Q) (antibody)”: the Kd was 218 nM in assay [16], 7.8 nM with rat FcRn (rat) [17] and 1620 nM in assay [21]. For the same substance, in assay [18], the FcRn affinity column elution pH was found to be 8.12 pH. The substance also came in with a Ka in assay [13] of 4.59e+06 M⁻¹. Besides, in assay [14], the Steady State Binding, pH 7.4 (RU) turned out to be 15.2 RU. In addition, the figures for the koff (in assay [19]; with rat FcRn (rat) [20]) were 0.041 s⁻¹ and 0.0004 s⁻¹, respectively. Further, the kon in [19] worked out at 190000 M⁻¹ s⁻¹; with rat FcRn (rat) [20], 5000 M⁻¹ s⁻¹. Moreover, the Ratio in assay [22] came out at 3.31e-06. Further, the Ratio (pH 6.0/pH 7.4) in [23] was 302000. Further, the results for the Steady State RU (in [24]; in the assay with rat FcRn (rat) [25]) were 15.2 RU and 61.8 RU, respectively.
Take “mAb1 YEQY (M252Y/T256E/T307Q/N434Y) (antibody)”: the Kd was determined as 2500 nM in assay [2]; 79 nM in assay [3]; 80 nM in assay [4]; 4.8 nM in assay [7]; 3.7 nM in [9]; 2100 nM in assay [11]. The Steady State RU was 157 RU in assay [5]; 3.4 RU in assay [6]; 264 RU in assay [8]; 213 RU in assay [15]; 2.4 RU in assay [10]; 136 RU in assay [12].
For the substance mAb1 YETN (M252Y/T256E) (antibody), the Kd was determined as 128 nM in [16]; 8.4 nM with rat FcRn (rat) [17]; 128 nM in assay [26]; 8.43 nM with rat FcRn (rat) [27]; 878 nM in [21]. The same substance came in with a FcRn affinity column elution pH in assay [18] of 7.83 pH. Moreover, the Ka in assay [13] worked out at 7.81e+06 M⁻¹. Also, the koff in assay [26] turned out to be 0.0757 s⁻¹; with rat FcRn (rat) [27], 0.00273 s⁻¹; in [19], 0.076 s⁻¹; with rat FcRn (rat) [20] it was 0.0027 s⁻¹. The kon in [26] is 592000 M⁻¹ s⁻¹; with rat FcRn (rat) [27] it was 324000 M⁻¹ s⁻¹; in assay [19] it was 590000 M⁻¹ s⁻¹; in the assay with rat FcRn (rat) [20] it was 32000 M⁻¹ s⁻¹. Further, in assay [14], the Steady State Binding, pH 7.4 (RU) worked out at 9.8 RU. In addition, the Ratio (pH 6.0/pH 7.4) in assay [22] amounted to 1.25e-06; in assay [23] it was 797000. The Steady State RU in [28] was found to be 9.8 RU; with rat FcRn (rat) [29], 55.1 RU; in [24], 9.8 RU; in the assay with rat FcRn (rat) [25], 55.1 RU.
In the case of “mAb1 YEWF (M252Y/T256E/T307W/N434F) (antibody)”, in [7], the Kd stood at 13 nM, the koff came out at 0.0103 s⁻¹ and the kon amounted to 810000 M⁻¹ s⁻¹. Moreover, the FcγRIIIa Binding Steady State RU in [1] was 163 RU.
Turning to mAb1 YTWN (M252Y/T307W) (antibody), the Kd was 118 nM in assay [16]; 5.2 nM in the assay with rat FcRn (rat) [17]; 118 nM in assay [26]; 5.21 nM with rat FcRn (rat) [27]; 896 nM in assay [21]. Moreover, the FcRn affinity column elution pH in [18] was found to be 8.14 pH. The Ka in [13] worked out at 8.47e+06 M⁻¹. In addition, the koff turned out to be 0.057 s⁻¹ in [26], 0.00109 s⁻¹ with rat FcRn (rat) [27], 0.057 s⁻¹ in [19] and 0.0011 s⁻¹ in the assay with rat FcRn (rat) [20]. Further, the kon worked out at 483000 M⁻¹ s⁻¹ in [26], 208000 M⁻¹ s⁻¹ in the assay with rat FcRn (rat) [27], 480000 M⁻¹ s⁻¹ in [19] and 21000 M⁻¹ s⁻¹ with rat FcRn (rat) [20]. In [14], this substance displayed a Steady State Binding, pH 7.4 (RU) of 15.9 RU. The Steady State RU in assay [28] is 15.9 RU; with rat FcRn (rat) [29], 66.1 RU; in assay [24] it was 15.9 RU; with rat FcRn (rat) [25], 66.1 RU. Further, in assay [23], the Ratio (pH 6.0/pH 7.4) worked out at 533000.
As to “mAb1 YTWY (M252Y/T307W/N434Y) (antibody)”, the Kd came to 1100 nM in assay [2]; 65 nM in assay [3]; 70 nM in [4]; 7.7 nM in assay [9]; 2500 nM in assay [11]. The Ka in [13] came out at 1.06e+08 M⁻¹. Also, the Steady State RU in assay [5] was determined as 159 RU; in [6] it was 6.5 RU; in [8], 292 RU; in assay [15], 232 RU; in assay [10] it was 4 RU; in assay [12] it was 133 RU. The same substance came in with a Steady State Binding, pH 7.4 (RU) in assay [14] of 75.1 RU.

As a reminder, the koff is the first-order rate constant of dissociation. The low end stands for a long-lived complex, the high end for a short-lived complex. By kon is commonly meant the second-order rate constant of association.

For the origin of these results see US20210024620A1.
